Assay: soluble on expression in E. coli; label from the status in PepcDB or PDB records

| Sequence | soluble on expression in E. coli |
| --- | --- |
| SIPWNLERITPPRYRADEYQPPDGGSLVEVYLLDTSIQSDHREIEGRVMVTDFENVPEEDGTRFHRQASKCDSHGTHLAGVVSGRDAGVAKGASMRSLRVLNCQGKGTVSGTLIGLEFIRKSQLVQPVGPLVVLLPLAGGYSRVLNAACQRLARAGVVLVTAAGNFRDDACLYSPASAPEVITVGATNAQDQPVTLGTLGTNFGRCVDLFAPGEDIIGASSDCSTCFVSQSGTSQAAAHVAGIAAMMLSAEPELTLAELRQRLIHFSAKDVINEAWFPEDQRVLTPNLVAALPPSTHGAGWQLFCRTVWSAHSGPTRMATAIARCAPDEELLSCSSFSRSGKRRGERMEAQGGKLVCRAHNAFGGEGVYAIARCCLLPQAACSVHTAPPAEASMGTRVHCHQQGHVLTGCSSHWEVEDLGTHKPPVLRPRGQPNQCVGHREASIHASCCHAPGLECKVKEHGIPAPQGQVTVACEEGWTLTGCSALPGTSHVLGAYAVDNTCVVRSRDVSTTGSTSEEAVTAVAICCRSRHLAQASQELQ | soluble |
| MRRAGYLHLYGLNLVFDRVGKGPPVLLVAEEASRWPEALPEGYAFYLLDLPGYGRTEGPRMAPEELAHFVAGFAVMMNLGAPWVLLRGLGLALGPHLEALGLRALPAEGVEVAEVLSSKLSYGNIDLGGNL | soluble |
| MGNASMTKTDIATRVHNHTWKLDPIVRSLIDTDFYKLLMLQMIWKLYPEVDATFSLINRTKTVRLAEEIDEMELREQLDHARTLRLSKKENIWLAGNTFYGRSQIFEPEFLSWLSSYQLPEYELFKRDGQYELNFHGRWMDTTLWEIPALSIINELRSRSAMRSLGYFTLDVLYARAKAKMWEKVERLRELPGLRISDFGTRRRHSFLWQRWCVEALKEGIGPAFTGTSNVLLAMDSDLEAVGTNAHELPMVVAALAQTNEELAAAPYQVLKDWNRLYGGNLLIVLPDAFGTAAFLRNAPEWVADWTGFRPDSAPPIEGGEKIIEWWRKMGRDPRTKMLIFSDGLDVDAIVDTYRHFEGRVRMSFGWGTNLTNDFAGCAPKTIASLKPISIVCKVSDANGRPAVKLSDNPQKATGDPAEVERYLKFFGEEDHKEQKVLVLEHHHHHH | not soluble |
| MTASRPAFLHLSPADTVGIALRALPSGEEALGVTLRADVPLGHKFAVVAMPAGTAVVKYGQVMGVATADIAPGDHVHSHNCAMSDSHSNRADAKGTLHAAPGRQTFQGYLRPDGRVGTRNYIGIMASVNCSSTVCNAIAEAANRTLLPRFPGIDGFAPIVHDQGCGMASAGEGFDALVRVLKGYRDHPNFGGVLIVGLGCEVNQLTLYKRTDWTEERIGIFNIQDVGGSASAVRRALELLEPICAAADQDRRSEQPVSKLVLGMQCGGSDGFSGITANPALGVASDMLVAAGGTSILSETPEIYGAEHLLIARADAETGRRIEGMIDWWRDYAAKNGASLDNNPSPGNKRGGLTTILEKSLGAVAKGGLSPLAGAFAYAEPIRIPGLVYMDSPGYDPVAATGQVASGANLIAFTTGRGSCFGAKPAPSIKLASNSDLARRMPEDMDIDCGVVVEEGVSLEEMGRRIYDLLLDTASGKRSKSEEFGYGDNEFVPWKIGATL | not soluble |
| MKKLLSACLILFTVVCSAYAADEKEAAPAAEYAYYGFEPEIVTNYISNRKKLGFVKISVELMVKSPDDLVIVERHDPLLRAAIIEVLGNQAEEKVKSLTGREEIRRECFDMVNNLLTKEAGKPLVVNLLFTSYLYD | not soluble |
| MLSLFALSEENKPELDCVANPTLLPHDIMYFDGFLSSEDEAFVADRLDAGEWSTELKRRVQHFGYRYDYKVRAVTPDAYLGPLPPWLGLFAERLVADGYCRTVPDQVIANEYLLGQGISAHVDCVPCFDDTIVSISLLSACEMVFRDLRGPGIRSVLHPRSGVLLRGSSRYDWTHEIPARKSDIVNGVKTARSRRISLTFRKVLGLKRPLEHHHHHH | not soluble |
| MGGSHHHHHHGMASLGMIKNSLFGSVETWPWQVLSKGDKEEVAYEERACEGGKFATVEVTDKPVDEALREAMPKVAKYAGGTNDKGIGMGMTVPISFAVFPNEDGSLQKKLKVWFRIPNQFQSDPPAPSDKSVKIEEREGITVYSMQFGGYAKEADYVAQATRLRAALEGTATYRGDIYFCTGYDPPMKPYGRRNEIWLLKT | not soluble |
| VEAHPSLTLFSQLRIEHEDMAIAEDDWAWLRHKGHLRLGAALDETSPFNVRLDDENYEGITADVATLVGQLLGMRIKVVSFDTHADAVAALAAGKIDLLGSHYSSAGDSSLVLSQPYARDRLAVFKRMGEKRNSPEDLAGLSVAVAREHVGELRQRFPRARFVVFGSHDEAVAAVAFGHTDLYLDDVLSAYHRINRSYYGYVRFERFADARLEGGYGFLLRRGDTNLLRVVNSAIGAINQDRLESIARRWVGSGSLPTGQRIALTPQESRWIARHPVVRLVINDDLAPLAFFNSDETFSGIASDLLDMISRRTGLHFQVTPRSGGFPEQIGVLARKEADLAIMSRSSKREEMLRFTRSFLSTSYVLVTRADDKGRAEIPGSLDGKRIAIPAGHVGMQQVRERYPQASMVEVGVALDAMNLVYEGRADAAVVPLVTARYYIVRLFRERLAIADLVPIGAATAHFAVRRGDAELQSILDKALLSISPDDLSDIVNRW | not soluble |
| MMVKSFTPPSSQSSVQDSGNSKLSVIEVVPENGIGALVSSSPTILRTTQAEPEILRYDPVEILAHYENKLLQVLRRTLAVLQPTLSYVFGLWLDNKRGVKVKNDRSRAIQLRELLTKLGPAYIKIGQALSTRPDLVPPVYLEELTRLQDQLPAFPNEIAYQFIEEELGAKPEEIYAEVSPEPIAAASLGQVYKGKLKTGEEVAIKVQRPDLREIITIDLYILRRLAGWVQRKVKRVRSDLVGILDELGDRIFEEMDYIHEGENAERFFELYGHIQDIYVPKIYWEYTNRRVLTMEWIKGIKLTQTSEIKELGIDARYLIEVGVQCSLRQLLEHGFFHADPHPGNLLATFDGKLAYLDFGMMSEIRPPQRYGLIEAIVHVVNRDFDSLAQDYVKLEFLSPETDLTPIIPAFGKVFANAQGASVAELNIKSITDDLSALMYEYPFRVPPYYALIIRSLVTLEGIAIYIDPNFKVLSEAYPYVSKRLLTDPADELRTSLRDLLFKMVNSGGIV | not soluble |
| MGSDKIHHHHHHMDTSSREHDLVIYGATGFVGRLIAVYIAEHAPAGMRVGLAGRSNSRLEAVRAELPAAAHGWALIEASSEDADSIAALAANTRVLFTTVGPYAKHGLPVVEACARAGTHYADLAGEVFFIREAIDCYDALARTSGARIVHSCGYDSVPSDLAVLLLHQAAEADGAGGLVEVQLEARARAGISGGTLESMRGQLDAMRSSTALRSLAADPYALSPDRTREPTTPQPPDAGPVRRSADGTWTAPFIMAPFNTRIVRRSNALQRWAYGRSLQYGEVMGVAPGPAGAVIPRAMALGLRAFTGAMAFPPTRKVLDRFLPAPGTGPSTSTQRAGWFHSQVTARTEDGQRYQAIAAGPGDPGYAATAVMAGETALALALDGDRLPTAKGSLTPATALGNVLIQRLRAAGHTYQVSKLA | not soluble |
| MTQLKTQYPSLIIDASFITLAANATVKPQDKTYNTVNLLNRFFLIWLDVASRGLSHHHVLSHPFKDWMTNMLDFPYHHEFIEFLGRWTHILIALPKRHHGQVDTAIPRYLLVTIREKTGIVKLTTVQNTAFTTQSNQLKKQYGQFLLTESNNCCACPGCDRPLILTSGNLAAENYEVSAIEKDKDAEALNLIALCPDGFLTYQADRRKKIVTTLKNVKKILVSAHNSQQAISDMKLDSGIVSVLTSLNKLKCDEYNISYDSKQLTDKISPENNRTLYQLVKNQVIDNYLTIQKIIVNLDKQGKIDYEKIQYQTRSMYKKLKAAKHNNLAIFNTISEKLHLATLQDIYFCQMIVSYFIQKCEVLE | not soluble |
| MSEVLNRQSREITTIVSQPNISRPNYQREKGKERLLGIKATESSNKAGQSFVPQLNPSGTLFTISMKPPAKINTGYTPVDEQKEVKAEVRNSEITEKSFGQAKFIGVSAGNTVGYVIPNLEPGLSQYLQANRSLRAIGVISSRVGAAAQIMAADEAVKKTNSELIRLELARDELGGPGHGVFALFGAEDVADVIRAVEIALKATEEYYQNIKNTPAGKIETHYTARAAAALNKAFGAPLNQAFGIIIGAPAGVGLLMSDTALKTAHVTMVSFWGPSVVQAFANEVWFTVTGDSAAVKNALEAAREVGLQVLAEFRA | not soluble |
| RSVRVLVDMDGVLADFEAGLLRGFRRRFPEEPHVPLEQRRGFLAREQYRALRPDLADKVASVYEAPGFFLDLEPIPGALDAVREMNDLPDTQVFICTSPLLKYHHCVGEKYRWVEQHLGPQFVERIILTRDKTVVLGDLLIDDKDTVRGQEETPSWEHILFTCCHNRHLVLPPTRRRLLSWSDNWREILDSKR | soluble |
| MYQEIKGVRVWGDPIENAVDQAVTCAQHGDVEQVLLMADHHKGYSQPVGGVVVYRNQISPSGVGYDIACGNKAVKTNVKYVDIKDQLSKIMDELAQSISFGVGRSNREKVEHDLFDDSDWSVYQEIGKQEHDNLKTLAKKQLGTVGSGNHFVDLFVEEATGDVWVANHFGSRGFGHKTASGFMNLAKGVKFSDKVKGERMEDAPTLLDLDSEIGDMYYRAMQLAGKYAYAGRDYVIQKVLDILQAEAVFSVHNHHNFAWKETHNGEEYVIVRKGATPSAPNQWGFIGGSMGDISVIVRGVDSEENRDAFYSTVHGAGRIMSRTEAAGKMNWKTRTRSGGKITPDQMKQAIKEYGVELRGGGTDESPFVYKNLADVLEAHKQTLSIEHVLKPIGVCMAGEGEFDPYKDMAGDPLEHHHHHH | soluble |
| MYAVTFDLDTNCLNENAVNLSKVYSDIRKFMEQHGFKWQQGSVYFGDETINAVTCVATVQILAKQIPSFAVCVKDVRMLKIEENNDLMPAIKIVL | not soluble |
| MATIGLDRLYYAKITENENGEETYATPVPLAKAITAELSVELAEATLYADDGAAEVVKEFQSGTLTLGVADIGVDAAEVLTGATLDDNKVLISTSEDGGAPVAIGFRAKKANGKYRYFWLYRVKFGIPATNLQTKGDSITFSTPTIEGTVMRRNKPDGQGKHPWKAEVSEDDPGVLPETIAGWYTEVYEPVFAVGGGS | not soluble |
| MSKDAKSPKKLRSNRAALTHKVGYALRHPERVGPYVRRAGRDAWLRVKHPDHVGYYRAVMASDARRSPEAAVGSRTHDRWLALGQMQFDYLVEHGLRPGHRMLDIGCGNLRGGWRFIDHLDSGHYYGVDISPDILIAAKKTLTERGLQAKLPHLTITGDLRLEFLPDDHFDVVHAHSVFSHSPLNVIDECLAHVGRVLTDTGFFDFTFDRTEGTEHQVLREDFYYRTDTLLTLAAQHNLHARFMEDWEKRPHGQSKIRVSRSPLPSLEHHHHHH | not soluble |
| SAAEEEDEVEWVVESIAGFLRGPDWSIPILDFVEQKCEVFDDEEESKLTYTEIHQEYKELVEKLLEGYLKEIGINEDQFQEACTSPLAKTHTSQAILQPVLAAEDFTIFKAMMVQKNIEMQLQAIRIIQERNGVLPDCLTDGSDVVSDLEHEEMKILREVLRKSKEEYDQEEERKRKKQLSEAKTEEPTVHSSEAAIMNNSQGDGEHFAHPPSEVKMHFANQSIEPLGRKVERSETSSLPQKGLKFPGLEHASIEGPIANLSVLGTEELRQREHYLKQKRDKLMSMRKDMRTKQIQNMEQKGKPTGEVEEMTEKPEMTAEEKQTLLKRRLLAEKLKEEVINK | soluble |
| MIPGTIPTSYLVPTADTEATGVVSLSARAAMLNNMDSAPLSNGGDVDLYDAFYQRLLALPESASSETLKDSIYQEMNAFKDPNSGDSAFVSFEQQTAMLQNMLAKVEPGTHLYEALNGVLVGSMNAQSQMTSWMQEIILSGGENKEAIDW | not soluble |
| MPMINALGLLEVDGMVAAIDAADAMLKAANVRLLSHEVLDPGRLTLVVEGDLAACRAALDAGCAAAMRTGRVISRKEIGRPDDDTQWLVTGFNRQPKQPVREPDAPVIVAESADELLALLTSVRQGMTAGEVAAHFGWPLEKARNALEQLFSAGTLRKRSSRYRLKPH | not soluble |

Source: the DeepSol protein solubility set
